T1: human PVRIG-his (AcroBiosystems, Cat NO. PVG-H52H4) (human, UniProt Q6DKI7 41-171, limits assumed)
T1 construct: also called human PVRIG protein
T1 sequence (looked up): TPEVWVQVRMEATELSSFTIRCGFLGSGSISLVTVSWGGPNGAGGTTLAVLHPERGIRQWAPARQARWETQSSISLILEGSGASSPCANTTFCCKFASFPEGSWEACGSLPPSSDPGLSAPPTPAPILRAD

T2: human PVRIG on FlpinCHO-PVRIG cells (human, UniProt Q6DKI7 41-326)
T2 construct: whole, on cells
T2 sequence (looked up): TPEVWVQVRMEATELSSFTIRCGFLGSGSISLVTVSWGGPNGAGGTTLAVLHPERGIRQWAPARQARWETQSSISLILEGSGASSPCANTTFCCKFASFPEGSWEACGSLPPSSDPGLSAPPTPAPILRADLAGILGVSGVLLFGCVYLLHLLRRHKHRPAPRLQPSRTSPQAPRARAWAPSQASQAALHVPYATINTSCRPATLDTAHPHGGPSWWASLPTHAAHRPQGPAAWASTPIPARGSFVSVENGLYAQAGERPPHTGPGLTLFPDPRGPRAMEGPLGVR

T3: cynomolgus monkey PVRIG on FlpinCHO-cyno PVRIG cells (cynomolgus monkey, UniProt A0A2K5WVV8 41-322)
T3 construct: whole, on cells
T3 sequence: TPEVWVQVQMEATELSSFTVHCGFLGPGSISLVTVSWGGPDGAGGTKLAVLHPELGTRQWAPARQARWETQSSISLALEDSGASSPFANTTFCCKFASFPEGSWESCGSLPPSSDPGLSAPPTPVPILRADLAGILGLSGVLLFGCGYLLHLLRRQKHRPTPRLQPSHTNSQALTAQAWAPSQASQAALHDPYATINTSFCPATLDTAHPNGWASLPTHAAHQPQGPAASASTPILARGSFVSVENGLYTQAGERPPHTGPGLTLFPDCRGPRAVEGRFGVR

B1: PVRIG-A118-H4 (Fc fusion)
chain: EVQLVESGGGLVQPGGSLRLSCAASETYFDLYVMGWYRQAPGKDRELVATITYTGSIKYVDSVKGRFTISRGDAKNSLSLQMNSLRAEDTAVYYCNADPSGLGRKVYWGQGTMVTVSS
notes: humanized variant of PVRIG-A118; also called A118.VH4; not shown: constant part not restated for the humanized forms; parents are VHH-hinge-CH2-CH3 of human IgG1; detected by anti-human
B2: PVRIG-A118-H7 (Fc fusion)
chain: EVQLVESGGGLVQPGGSLRLSCAASETYFDLYVMGWYRQAPGKDRELVATITYTGSIKYVDSVKGRFTISRGDAKNSLYLQMNSLRAEDTAVYFCNADPSGLGRKVYWGQGTMVTVSS
notes: humanized variant of PVRIG-A118; also called A118.VH7; not shown: constant part not restated for the humanized forms; parents are VHH-hinge-CH2-CH3 of human IgG1; detected by anti-human
B3: PVRIG-A118-H5 (Fc fusion)
chain: EVQLVESGGGLVQPGGSLRLSCAASETYFDLYVMGWYRQAPGKDRELVATITYTGSIKYVDSVKGRFTISRGDAKNSVYLQMNSLRAEDTAVYYCNADPSGLGRKVYWGQGTMVTVSS
notes: humanized variant of PVRIG-A118; also called A118.VH5; not shown: constant part not restated for the humanized forms; parents are VHH-hinge-CH2-CH3 of human IgG1; detected by anti-human
B4: PVRIG-A50-H1 (Fc fusion)
chain: EVQLVESGGGLVQPGGSLRLSCAASGFTFSYYDMSWVRQAPGKGLEWVSTINSNGGRTSYVDSVKGRFTISRDNSKNTLYLQMNSLRAEDTAVYYCVEGDPHNFGLENLSLRDFGSWGQGTMVTVSS
notes: humanized variant of PVRIG-A50; also called A50.VH1; not shown: constant part not restated for the humanized forms; parents are VHH-hinge-CH2-CH3 of human IgG1; detected by anti-human
B5: PVRIG-A50-H1d (Fc fusion)
chain: EVQLVESGGGLVQPGGSLRLSCAASGFTFSYYDMSWVRQAPGKGLEWVSTINSNGGRTSYVDSVKGRFTISRDNSKNTLYLQMNSLRAEDTAVYYCVEGDPHNFGLESLSLRDFGSWGQGTMVTVSS
notes: humanized variant of PVRIG-A50; also called A50.VH1d; not shown: constant part not restated for the humanized forms; parents are VHH-hinge-CH2-CH3 of human IgG1; detected by anti-human

What was measured:
[1] = biological target: T1, human PVRIG-his (AcroBiosystems, Cat …); assay: SPR (BIAcore), antibody captured on Protein A chip, human PVRIG-His analyte
Protocol: Biacore was used to detect the specific binding between anti-PVRIG antibody and human PVRIG protein. Protein A chip was used in the BIAcore assay. The time required for the chip to capture the diluted antibody and saturate the binding antigen to reach Rₘₐₓ (Maximum binding capacity, 50 RU) was measured by manual run. […] The affinity of antibody for antigen was measured by multi-cycle kinetics. In each cycle, the antibodies were injected prior to the injection of gradient concentraions of PVRIG proteins allowing the occurrence of antibody-antigen association and dissociation After each cycle, the Protein A chip was regenerated by Glycine, pH 1.5 (to remove the proteins on the chip). The affinity of antibody for antigen was calculated by BIAcore T200 analysis software.
The methods refer to Example 10.

[2] = biological target: T2, human PVRIG on FlpinCHO-PVRIG cells; assay: FACS, FlpinCHO-PVRIG cells
Protocol: (§1) The Ham's F12 (Gibico, 21127-022) complete medium containing 10% FBS was then added to terminate the digestion and acquire cell suspension. After counting with a cell counter (Beckman Coulter, Vi-CELL), an appropriate amount of cell suspension was centrifuged at 350×g to remove the supernatant, washed twice with PBS, stained with Zombie violet (Biolegend, 423114) and incubated at room temperature for 20 minutes. After incubation, the cells were added with staining buffer (2% FBS+PBS) to stop staining, centrifuged at 350×g to remove the supernatant, washed twice and resuspended with staining buffer to a density of 2×10⁶ cells/mL. The cells were plated into a 96-well plate (50 μL of cell suspension per well) for further use. The antibodies were diluted from the highest concentration of 46 nM (two-fold concentration) with staining buffer by 3.3-fold serial dilution. The diluted antibodies were added to the well containing 50 μL of cell suspension. The plate was placed on a microplate shaker at 400 rpm for 1 minute to fully mix the antibodies and cells, and then incubated at 4° C. for 30 minutes. After the incubation, the cells were washed twice with staining buffer (200 μL per well) and centrifuged at 350×g for 5 minutes to discard the supernatant. The PE goat anti-human IgG Fc antibody (ebioscience, 12-4998-82) was diluted 250 times with staining buffer, added into the washed wells (100 μL per well), mixed well, and stained at 4° C. for 30 minutes. After staining, the cells were washed twice with staining buffer, finally resuspended with 200 μL staining buffer and analyzed by flow cytometry (BD, Canto II). The stronger the signal, the stronger the ability of the antibodies binds to PVRIG. An antibody binding curve was drawn with concentration of antibodies as the abscissa and the corresponding Mean Fluorescence Intensity (MFI) as the ordinate. The AUC value of the curve was calculated by using a Four Parameter Logistic Fit (GraphPadPrism9). The stronger the AUC value, the stronger the ability of the antibodies binds to FlpinCHO-PVRIG and FlpinCHO-cyno PVRIG. […] The binding activity of the antibodies was normalized to the positive control COM701-hIgG1 and SRF813-hIgG1.

[3] = biological target: T3, cynomolgus monkey PVRIG on …; assay: FACS, FlpinCHO-cyno PVRIG cells
Protocol: as §1, with “The” for “The Ham's F12 (Gibico, 21127-022) complete medium containing 10% FBS was then added to terminate the digestion and acquire cell suspension. After counting with a cell counter (Beckman Coulter, Vi-CELL), an appropriate amount of cell suspension was centrifuged at 350×g to remove the supernatant, washed twice with PBS, stained with Zombie violet (Biolegend, 423114) and incubated at room temperature for 20 minutes. After incubation, the cells were added with staining buffer (2% FBS+PBS) to stop staining, centrifuged at 350×g to remove the supernatant, washed twice and resuspended with staining buffer to a density of 2×10⁶ cells/mL. The cells were plated into a 96-well plate (50 μL of cell suspension per well) for further use. The”, “SRF813-hIgG1. The higher the percentage value, the stronger the binding ability of the antibodies.” for “SRF813-hIgG1.”
The methods refer to Example 19. The stronger the AUC value, the stronger the ability of the humanized antibodies binds to FlpinCHO-human/cyno PVRIG.

| Binder | Kd [1] | koff [1] | kon [1] | AUC % to COM701-hIgG1 [2] | AUC % to SRF813-hIgG1 [2] | AUC % to parental Ab [2] | AUC % to COM701-hIgG1 [3] | AUC % to SRF813-hIgG1 [3] | AUC % to parental Ab [3] |
| --- | --- | --- | --- | --- | --- | --- | --- | --- | --- |
| B1 | 1.21 nM | 0.00327 s⁻¹ | 2.69e+06 M⁻¹ s⁻¹ | 132% | 185% | 97% | 21.3% | 26% | 34.2% |
| B2 | 1.08 nM | 0.0026 s⁻¹ | 2.41e+06 M⁻¹ s⁻¹ | 126% | 177% | 92.7% | 19.7% | 24% | 31.6% |
| B3 | 1.37 nM | 0.00383 s⁻¹ | 2.79e+06 M⁻¹ s⁻¹ | 128% | 179% | 93.9% | 21.8% | 26.6% | 35% |
| B4 | 0.0362 nM | 1.48e-05 s⁻¹ | 410000 M⁻¹ s⁻¹ | 74.4% | 132% | 101% | 45.2% | 55.5% | 96% |
| B5 | 0.0545 nM | 1.43e-05 s⁻¹ | 262000 M⁻¹ s⁻¹ | 63.1% | 112% | 85.9% | 48.6% | 59.7% | 103% |

— US20240343803A1 (SHANDONG SIMCERE BIOPHARMACEUTICAL, published 2024)
